From the DeepSol protein solubility set

Assay: soluble on expression in E. coli; label from the status in PepcDB or PDB records

Sequence	soluble on expression in E. coli
MAHHHHHHMWRCGMMPRTRVLRFVWKQSYRDLLPPAAASAYVCGQLRWCDSCDGGGVPAVLESPSDAAGVYSFFSQSTASAVRALRDVTRSAHSLSITDRRLALDGLAVLLRENADLLASADALVTGMCLRDARRSLDAALNFILFCEQRLRTPTAAATTAVIMKDAASVDAEEVLHSFGCGGANICGDSHSVSTLTGKSSVALCVTAANYPLQWGMETVATALLRGSAAVWLPSLDTPLSALWLMHLLHRSNKNVVADSRGAVNIILCRADDVVAAFSRQQESGLSIVGLKNGFRDHQLSRNHQAHGIPSAISHGSISCITRWYHRVMKPSLAVVGSGHHHTETMAVRLDASRVAALICQHAFHGNGRMLYALHIAFVPKQDVLPVLQSVVQYVRNLRLGHSLDPSVNMGPLPGAAHMAAMKETVEAAVCCGDFKLQHVCGGFDVAMPAGFFCLPCAFYATVANVTPAGTEMSIRVLCETTARLRFGLDRLGGGPFVVVCGYDPPQQREALEVVLREKEQYVLHYW	not soluble
MAHHHHHHMWSGLKLERLLYTFPETTTPTGWSQSDPLLSSPLGEADANEGDSSAVFGEDVNVEHRHFNNGERRRKLALRPFTVPASAMAEEGGEEGSHVHLGFSFPGEGKFDEEPEAVLWCPQGNCQWLNEESDCSQRSAMSCPARPTKTTIQLGDPGAPIKKNRERKYICNDADENSNSRVGPALYHQLEFFQESNSVSFPCESSALSHITPLDETGESVDLANHMSHLTVAVSPIQKRLLFTGVLDDAVDAPSGRDVGDDKGVGSGLQSLRREKRFLEEMDTNRDAANSNSMACTMPREPHRKFRRIDAGENDRKSLDNHFHSRR	not soluble
MAHHHHHHMYRAHSKDINRNKGFHPLTYRNLRRVEQLKEEAELNKQKAEERQKELQRDQEERRYDELVLANSADSLSGELARYRQTRSIFAAEYEADAKAAKDASVASLPSPQVSKPEVQLKTSAGASFPVNSFLSKFKKEESYGSTCVMVKAEARDNTAAAASSAVASAEAETPVRKRPRDDATSNSPSSTHNGSGYGEGATKRGGDGGESAPATGFVTSAEAAQLRKELNLAQKQRHDPLMRVKEYQNSCVAAAARQLDHEQATGAVAKREDDQDKLQSRIRELLALKKKKK	not soluble
MAHHHHHHMYTWFHTSSHVFFVMEYCSNGDLFTYLNEHGPFAEKKVAEMLFEIIWAIRTCHDKRIAHLDLKPENVLVNHEEKCKLADFGLSAHIGSKHKKKGISHYRGTHDYWSPEQCARHQKKKQNFGEFDQKTDIWTLGILAFELKFGRPPFGSTNEERETVIMNRIQDYHWSQLFCEKMKQDLIDKLSPEFKDFLNLCLDKNPKKRPTAETLIQHPFIFLHNKSRPCIKSYATQPRGKQGPKLSHKGFNEQDGSFLTPIWFHNKG	not soluble
MAHHHHHHSLAEQIDLKTFKTDVADYEAARPEYPIGITDWITDEFLIDETSIILELGAGTGKFTPRIIASHPKEIIAVDVYPEMLDVLRKKFPNVDCRAGSAMAIPLEDESVDLVLCAQCFHWFANEEAMKEIYRVLKPNGKLGLVWNTRDDTVPWIEKVSKILGRYRKDAPSFVSWKWAELFPGHGFGKLRYCAFPFSRCLTVEELHTLMNSFSFIYKLPEEEKEKVHAELDEIAKTIPRVQNTDQIKLCYQTMAFSSEKEPAKEG	soluble
MAHHHHHHSLKCILLNQAEELPIEFLPKDGVYGKGKLFDSRNMEIENFTESDILQDARRAAEAHRRARYRVQSIVRPGITLLEIVRSIEDSTRTLLKGERNNGIGFPAGMSMNSCAAHYTVNPGEQDIVLKEDDVLKIDFGTHSDGRIMDSAFTVAFKENLEPLLVAAREGTETGIKSLGVDVRVCDIGRDINEVISSYEVEIGGRMWPIRPISDLHGHSISQFRIHGGISIPAVNNRDTTRIKGDSFYAVETFATTGKGSIDDRPPCSHFVLNTYKSRKLFNKDLIKVYEFVKDSLGTLPFSPRHLDYYGLVKGGSLKSVNLLTMMGLLTPYPPLNDIDGCKVAQFEHTVYLSEHGKEVLTRGDDY	not soluble
MAHYKAADSKREQFRRYLEKSGVLDTLTKVLVALYEEPEKPNSALDFLKHHLGAATPENPEIELLRLELAEMKEKYEAIVEENKKLKAKLAQYEPPQEEKRAE	soluble
MAICESGALPSHVGALSYSGGAASSFFGRRNADGLNDKWLALRDAFRAAGGDLLAIEDARSAALDFVIHVNAHRLRHDVPAFVILAESEFIHPPNVDWRMLQQYKGIFTWMPDLVRRGIGTEICLAHPLGAGVVDGYQERPQLLVMIASNKALPVWRPAVDLYRERVRAIRWFEKHAPQAFALYGHDWDKSPRLPTPLGGIVHGVEFVLPWRLQWFPSWKGVIPSKREVLRHARFSLCYENVRGLRGYITEKIFDAFCAGNVPVYWGAEDITDYIPADCFIDRRAFGDYADLYRYLTSMPETRYIQYQQAICDFLVSPAAKRFSSEIFATTIVGKVLDTLGRRDE	not soluble
MAIELYSQREIEKIRKASQIVAEVLHIVAENVKPGVSTWDLEMIARKETEKRGAKPAFLGYKPPFSDVRYPAALCISINDEVVHGLPKKEKVIKEGDVVSIDFGAIYDGYAGDSAITVIAGKGSPEAQKLLEATKEALYNAIEKALPGKKVGDITKAIHETAEKYGFKTILRYGGHGVGRKVHQEPFVPNNVKDIGKKNPRLRQGMVIAIEPMLSIGTEETVEDGDGWTVKTKDGSLAAHFEHTVAITKKGPVILTEL	soluble
MAIKITPDEFSLLIQRLNKKWRVFAPSAEFRGGRFSDTDNIIYQRISGWRDLIWHEKSHMSPNTIIAPITETLFYFDKDTIQIAETDTSPIIIFARACDINAMSRLDYMYLSNGNNSDYSYQLLREHIRFVLIECEESFENCFCVSMGTNKTDCYSAAMRFSDEGALVSIRDPFIEAAIQGLGQEADYTPSFVSENRETVVTPDSVCHDPQKIRDILTHHPLWDAYDSRCISCGRCTTGCPTCTCYSVFDVAYDENPQRGERRRQWASCMVPGFSDMAGGHGFREKPGERLRYRALHKVNDYKARNGIEHMCVGCGRCDDRCPQYIKFSLIINKMTAAVRQALAEEA	not soluble
MAIKSVVVGKGTLTLAMKDAHTQALDFSAQVTSAKFQPDSSTGDSITVLSGETIPGKKSFGGHLEIDFLQDFSTNGIVDFSYKNAGKEADFVYTPNTEAKAKLQGTVIIAPLEVGDDVEAIAKSAAKWVVPSLPTFTPGG	not soluble
MAIPFFEEEHAPKSEPSGDQVDSPMAFSIDPGHDQVDFEGPPSAAEELPPPGATSEPVAPPSAEEQLLAWKFLAITMCKVLKQFYQQHKSSGKSSKLKATVQIQPQAQ	not soluble
MAISFDYSNALPFMQENELDYLSEFVKAAHHMLHERKGPGSDFLGWVDWPIRYDKNEFSRIKQAAERIRNHSDALVVIGIGGSYLGARAAIEALSHTFHNQMNDTTQIYFAGQNISSTYISHLLDVLEGKDLSINVISKSGTTTEPAIAFRIFRDYMEKKYGKEEARKRIYVTTDRTKGALKKLADQEGYETFVIPDNIGGRYSVLTAVGLLPIAVAGLNIDRMMEGAASAYHKYNNPDLLTNESYQYAAVRNILYRKGKAIELLVNYEPSLHYVSEWWKQLFGESEGKDQKGLFPASVDFTTDLHSMGQYVQEGRRNLIETVLHVKKPQIELTIQEDPENIDGLNFLAGKTLDEVNKKAFQGTLLAHVDGGVPNLIVELDEMNEYTFGEMVYFFEKACGISGHLLGVNPFDQPGVEAYKKNMFALLGKPGFEDEKAALMKRLSK	soluble
MAISIKTPEDIEKMRVAGRLAAEVLEMIEPYVKPGVSTGELDRICNDYIVNEQHAVSACLGYHGYPKSVCISINEVVCHGIPDDAKLLKDGDIVNIDVTVIKDGFHGDTSKMFIVGKPTIMGERLCRITQESLYLALRMVKPGINLREIGAAIQKFVEAEGFSVVREYCGHGIGQGFHEEPQVLHYDSRETNVVLKPGMTFTIEPMVNAGKKEIRTMKDGWTVKTKDRSLSAQYEHTIVVTDNGCEILTLRKDDTIPAIISHDELVPRGSLEHHHHHH	soluble
MAKAVGIDLGTTNSVIAVLEGGKPVVLENAEGERVTPSVVAFRDGETLVGRMAKRQAVLNPEGTIFEIKRFIGRRFEEVQEEAKRVPYKVVPGPDGGVRVEVKGKLYTPEEISAMILRKLVEDASKKLGEKITKAVITVPAYFNNAQREATANAGRIAGLEVLRIINEPTAAALAYGLDKKGNETVLVFDLGGGTFDVTILEIGEGVFEVKATSGDTHLGGSDMDHAIVNWLAEEFKKEHGVDLKADRQALQRLIEAAEKAKIELSSTLETTISLPFIALDPASKTPLHLEKKLTRAKFEELIQPLLKRLRGPVEQALKDAGLTPAQIDEVILVGGATRVPAVQQVVRELLGKEPNRSVNPDEVVAMGAAIQAGVLMGEVRDVVLLDVTPLSLGVETKGGVMTVLIPRNTTIPTRKCEIFTTAEHNQTAVKSIVFQGKRPMAQDNKSLGRFRLEGIPPMPAGVPQIEVCFDIDANGILHVTAKERSTGREASITIQNTTTLSEEEIQRIIEEAKRHAEEDRRRREHAELKNALDSARVQAERVLQERQGAPEARARLEAAIGKAKELVERDAPDPELKAATEELLKAVEEYEKGAQAASGKGPDDVIDADYKPAD	soluble
MAKFIQKRLFASYIIRKNYYEIIGVSASATRQEIRDAFLKKTKQLHPDQSRKSSKSDSRVGWATGSSETEQFMLVKEAYDVLRNEEKRKEYDLAFSREGGFLMEATHKTQEMSTQRRNIQRAEWSADVIPDAKRNSKKVVYSHFRNPEDEYLREKQKNRM	not soluble
MAKILVAGKIPEIGLELLKDHDVEMYDKEELISLDELTERVKDKDALLSLLSTKVTKEVIDAAPSLKIVANYGAGYDNIDYTYAGEKGIAVTNTPKVSTEATAELTFALLLAAARRIPEGDTLCRTTGFNGWAPLFFLGREVHGKTIGIIGLGEIGKAVAKRAKAFGMNILYTGPNRKPEAESELEATYVTLEELLQTADFITINCAYNPKLHHMIDEEQFKMMKKTAYIVNASRGPIMHEAALAHALKTNEIEGAALDVFEFEPKITEELKGLKNVVLAPHVGNATFETRDAMAEMAVRNILAVLKGEEPVTPVNQKVFVTK	soluble
MAKIVILFDFDRTLIDGDSDNWVVTEMGLTEIFHQLRFTLPWNRLMDRMMMELQSQGRSIDDIKSCLKKMPIDSHIIEAIKSAKSSGCDLKIVSDANQFFIEKILEHHDLVDCFSEIYTNPTSLDDNGNLRILPYHSDALPPHSCNLCPSNLCKGLVMDHLRASSSNDQIPRRFIYLGDGGGDFCPTLKLRECDFVMPRTNYPLWKKISDNPLLIKAEVKEWSSAEEQQRILLQLVSTITKEEDS	soluble
MAKKLSKKGDIQRDHFALISSFPLNQTPETKSEKLQKNLLLHKYYQGHRERLRRRYLKSKGNAIEDYEYLELLLFRTIPRANTKPIAKSLIAHFGSLADVLGADIHRLQEVQGCGPATALDLKIISDVAGRLARAQLFKRDIFSSWDQVLAYCKAVMAHETREQFRVLFLDKKNGLLADEVQQTGTIDHTPVYPREVISRALQLSASGLILVHNHPSGDATPSKADVTMTYRLKDAANALGITVHDHLIIARNNYTSFKELKFI	not soluble
MAKKPTALIILDGFANRESEHGNAVKLANKPNFDRYYNKYPTTQIEASGLDVGLPEGQMGNSEVGHMNIGAGRIVYQSLTRINKSIEDGDFFENDVLNNAIAHVNSHDSALHIFGLLSDGGVHSHYKHLFALLELAKKQGVEKVYVHAFLDGRDVDQKSALKYIEETEAKFNELGIGQFASVSGRYYAMDRDKRWEREEKAYNAIRNFDAPTYATAKEGVEASYNEGLTDEFVVPFIVENQNDGVNDGDAVIFYNFRPDRAAQLSEIFANRAFEGFKVEQVKDLFYATFTKYNDNIDAAIVFEKVDLNNTIGEIAQNNNLTQLRIAETEKYPHVTYFMSGGRNEEFKGERRRLIDSPKVATYDLKPEMSAYEVKDALLEELNKGDLDLIILNFANPDMVGHSGMLEPTIKAIEAVDECLGEVVDKILDMDGYAIITADHGNSDQVLTDDDQPMTTHTTNPVPVIVTKEGVTLRETGRLGDLAPTLLDLLNVEQPEDMTGESLIKH	not soluble
